doi:10.1101/2025.11.13.687974

What was measured:
[1] = biological target: MBP-tagged chromoshadow domain (CSD) of wild-type HPL-2 (Caenorhabditis elegans); test: mass photometry
[2] = biological target: human HP1β chromoshadow domain (CSD) (human); test: mass photometry
[3] = biological target: biotinylated 12-mer H3K9me3 chromatin arrays (histone octamers with H3K9me3 on 12x200-601 DNA) (Xenopus laevis | not stated); test: pull-down

MBP-tagged chromoshadow domain (CSD) of wild-type HPL-2 (domain or fragment)
percent dimers [1]: 67% | percent monomers [1]: 32% | stoichiometry N [1]: 2

human HP1β chromoshadow domain (CSD) (domain or fragment)
percent dimers [2]: 97% | stoichiometry N [2]: 2

B1: C. elegans HPL-2, wild-type recombinant protein (natural protein)
chain: MSSKSTKRAKIEDPKDNVFMVEKVLDKRTGKAGRDEFLIQWQGFPESDSSWEPRENLQCVEMLDEFEREFSKREKPIRKRHSQKPEPSEDQADPEEDKDEKKETNQNDKFSLEGKQLKCIVGLTKGPGELHFLCKFSDDTARLLPAKEVNSRYPSQVIRYYESKLTIQDPKADEL
fold enrichment on H3K9me3 arrays relative to unmodified arrays [3]: 3 fold
